Source: patent US20210395346A1 (SEOUL NATIONAL UNIVERSITY R AND DB FOUNDATION, published 2021)

Assays:
[1] = molecular target: T1, SARS-CoV-2 RBD variant N501Y (UK) (SARS-CoV-2, UniProt P0DTC2 319-541); assay: ELISA (FIG. 18E)
T1 construct: domain: RBD

[2] = molecular target: T2, SARS-CoV-2 RBD variant N439K (Europe) (SARS-CoV-2, UniProt P0DTC2 319-541); assay: ELISA (FIG. 18E)
T2 construct: domain: RBD

[3] = molecular target: T3, SARS-CoV-2 RBD variant K417V, N439K (Europe) (SARS-CoV-2, UniProt P0DTC2 319-541); assay: ELISA (FIG. 18E)
T3 construct: domain: RBD

[4] = molecular target: T4, SARS-CoV-2 RBD variant K417N, E484K, N501Y (South Africa) (SARS-CoV-2, UniProt P0DTC2 319-541); assay: ELISA (FIG. 18E)
T4 construct: domain: RBD

[5] = molecular target: T5, SARS-CoV-2 RBD variant K417T, E484K, N501Y (Brazil) (SARS-CoV-2, UniProt P0DTC2 319-541); assay: ELISA (FIG. 18E)
T5 construct: domain: RBD

[6] = molecular target: T6, SARS-CoV-2 RBD variant L452R (California) (SARS-CoV-2, UniProt P0DTC2 319-541); assay: ELISA (FIG. 18E)
T6 construct: domain: RBD

[7] = molecular target: T7, SARS-CoV-2 RBD variant S477N (New York) (SARS-CoV-2, UniProt P0DTC2 319-541); assay: ELISA (FIG. 18E)
T7 construct: domain: RBD

[8] = molecular target: T8, SARS-CoV-2 RBD variant E484K (New York) (SARS-CoV-2, UniProt P0DTC2 319-541); assay: ELISA (FIG. 18E)
T8 construct: domain: RBD

[9] = molecular target: T9, SARS-CoV-2 RBD variant E484Q, L452R (India) (SARS-CoV-2, UniProt P0DTC2 319-541); assay: ELISA (FIG. 18E)
T9 construct: domain: RBD

[10] = molecular target: T1, SARS-CoV-2 RBD variant N501Y (UK); assay: ELISA (FIG. 18A)
[11] = molecular target: T2, SARS-CoV-2 RBD variant N439K (Europe); assay: ELISA (FIG. 18A)
[12] = molecular target: T3, SARS-CoV-2 RBD variant K417V, N439K …; assay: ELISA (FIG. 18A)
[13] = molecular target: T4, SARS-CoV-2 RBD variant K417N, E484K, …; assay: ELISA (FIG. 18A)
[14] = molecular target: T5, SARS-CoV-2 RBD variant K417T, E484K, …; assay: ELISA (FIG. 18A)
[15] = molecular target: T6, SARS-CoV-2 RBD variant L452R …; assay: ELISA (FIG. 18A)
[16] = molecular target: T7, SARS-CoV-2 RBD variant S477N (New York); assay: ELISA (FIG. 18A)
[17] = molecular target: T8, SARS-CoV-2 RBD variant E484K (New York); assay: ELISA (FIG. 18A)
[18] = molecular target: T9, SARS-CoV-2 RBD variant E484Q, L452R …; assay: ELISA (FIG. 18A)
[19] = molecular target: T1, SARS-CoV-2 RBD variant N501Y (UK); assay: ELISA (FIG. 18C)
[20] = molecular target: T2, SARS-CoV-2 RBD variant N439K (Europe); assay: ELISA (FIG. 18C)
[21] = molecular target: T3, SARS-CoV-2 RBD variant K417V, N439K …; assay: ELISA (FIG. 18C)
[22] = molecular target: T4, SARS-CoV-2 RBD variant K417N, E484K, …; assay: ELISA (FIG. 18C)
[23] = molecular target: T5, SARS-CoV-2 RBD variant K417T, E484K, …; assay: ELISA (FIG. 18C)
[24] = molecular target: T6, SARS-CoV-2 RBD variant L452R …; assay: ELISA (FIG. 18C)
[25] = molecular target: T7, SARS-CoV-2 RBD variant S477N (New York); assay: ELISA (FIG. 18C)
[26] = molecular target: T8, SARS-CoV-2 RBD variant E484K (New York); assay: ELISA (FIG. 18C)
[27] = molecular target: T9, SARS-CoV-2 RBD variant E484Q, L452R …; assay: ELISA (FIG. 18C)
[28] = molecular target: T1, SARS-CoV-2 RBD variant N501Y (UK); assay: ELISA (FIG. 18B)
[29] = molecular target: T2, SARS-CoV-2 RBD variant N439K (Europe); assay: ELISA (FIG. 18B)
[30] = molecular target: T3, SARS-CoV-2 RBD variant K417V, N439K …; assay: ELISA (FIG. 18B)
[31] = molecular target: T4, SARS-CoV-2 RBD variant K417N, E484K, …; assay: ELISA (FIG. 18B)
[32] = molecular target: T5, SARS-CoV-2 RBD variant K417T, E484K, …; assay: ELISA (FIG. 18B)
[33] = molecular target: T6, SARS-CoV-2 RBD variant L452R …; assay: ELISA (FIG. 18B)
[34] = molecular target: T7, SARS-CoV-2 RBD variant S477N (New York); assay: ELISA (FIG. 18B)
[35] = molecular target: T8, SARS-CoV-2 RBD variant E484K (New York); assay: ELISA (FIG. 18B)
[36] = molecular target: T9, SARS-CoV-2 RBD variant E484Q, L452R …; assay: ELISA (FIG. 18B)

Measured: binding result

B1: E-3G9 antibody (format in FIG. 18 not stated) (antibody, V domains shown)
VH: QMQLVQSGAEVKKPGASVKVSCKASGHTITSYYMHWVRQAPGQGLEWMGIINPSGGSTSYAQKFQGRVTMTRDTSTSTVYMELSSLRSEDTAVYYCAREGVWDSSGYSSFDYWGQGTLVTVSS
VL: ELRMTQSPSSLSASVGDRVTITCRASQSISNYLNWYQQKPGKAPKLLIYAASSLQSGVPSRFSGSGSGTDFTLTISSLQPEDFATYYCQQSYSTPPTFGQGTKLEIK
binds: [1] | [2] | [3] | [4] | [5] | [6] | [7] | [8] | [9]

B2: A-1H4 antibody (format in FIG. 18 not stated) (antibody, V domains shown)
VH: EVQLVESGGGLVQPGRSLRLSCAASGFTVSSNYMSWVRQAPGKGLEWVSGIYSGGSTYYADSVKGRFTISRDNSKNTLYLQMNSLRAEDTAVYYCARDLQEAGAFDIWGQGTMVTVSS
VL: ELQLTQSPSFLSASVGDRVTITCRASQGISSYLAWYQQKPGKAPKLLIYAASTLQSGVPSRFSGSGSGTEFTLTISSLQPEDFATYYCQQLNSYPRLTFGGGTKVEIK
binds: [10] | [11] | [12] | [13] | [14] | [15] | [16] | [17] | [18]

B3: A-2H4 antibody (format in FIG. 18 not stated) (antibody, V domains shown)
VH: QMQLVESGGGLVQPGRSLRLSCAASGFTFSVYGMHWVRQAPGKGLEWVAVISYDGSNKYYADSVKGRFSISRDNSKNTLYLQMNSLRGEDTAVYYCAKGGPRPVVKAYGELDYYGMDVWGQGTTVTVSS
VL: ELALTQPASVSGSPGQSITISCTGTSSDIGGYEYVSWYQQHPGKAPKLIIYDVRDRPSGISNRFSGSKSGNTASLIISSLQAGDEADYYCFSYTSSGTYVFGSATKVTVL
binds: [19] | [20] | [21] | [22] | [23] | [24] | [25] | [26] | [27]

B4: A-2F1 antibody (format in FIG. 18 not stated) (antibody, V domains shown)
VH: QVQLVQSGGGLIQPGGSLRLSCAASGVTVSSNYMSWVRQAPGKGLEWVSVIYSGGSTFYADSVKGRFTISRDNSKNTLYLQMNSLRAEDTAVYYCARDLMEAGGMDVWGQGSTVTVSS
VL: ELALTQPPSASGSPGQSVTISCTASSSDIGASNHVAWYQQNPGKAPKLMIYGVSGRPSGVPDRFSGSKSGNTASLTVSGLQAEDEADYYCSSYAGSNILIFGGGTKLTVL
binds: [28] | [29] | [30] | [31] | [32] | [33] | [34] | [35] | [36]
